Laboratory results as given in patent US20140369978A1.
Changes are numbered by the printed parent chain. Names and notes keep the numbering of the source.

B1: recombinant human GDF-5 wild type (ligand)
chain: APLATRQGKRPSKNLKARCSRKALHVNFKDMGWDDWIIAPLEYEAFHCEGLCEFPLRSHLEPTNHAVIQTLMNSMDPESTPPTACVPTRLSPISILFIDSANNVVYKQYEDMVVESCGCR
B2: recombinant human GDF-5 mutant R399M (ligand)
chain: B1 chain with R18M, A84C
B3: human GDF-5 mutant W417F (ligand)
chain: B1 chain with W36F, A84C
B4: human GDF-5 mutant S439K (ligand)
chain: B1 chain with S58K, A84C
B5: recombinant human GDF-5 mutant W414R (ligand)
chain: B1 chain with W33R, A84C
B6: human GDF-5 mutant M412V (ligand)
chain: B1 chain with M31V, A84C
B7: recombinant human GDF-5 mutant R399E (ligand)
chain: B1 chain with R18E, A84C
B8: recombinant human GDF-5 mutant I449V (ligand)
chain: B1 chain with I68V, A84C
B9: human GDF-5 mutant W417R (ligand)
chain: B1 chain with W36R, A84C
B10: recombinant human GDF-5 mutant S439E (ligand)
chain: B1 chain with S58E, A84C
B11: human GDF-5 mutant R438K (ligand)
chain: B1 chain with R57K, A84C

Assays:
[1] = target: Fc-fusion protein receptor ectodomain of BMPR-IB; assay: ratio KD(IA):KD(IB) from Biacore, relative to wild type
[2] = target: Fc-fusion protein receptor ectodomain of BMPR-IB; assay: ratio of Biacore KDs, BMPR-IA as reference; measurement 1
[3] = target: Fc-fusion protein receptor ectodomain of BMPR-IB; assay: ratio of Biacore KDs, BMPR-IA as reference; measurement 2
[4] = target: Fc-fusion protein receptor ectodomain of BMPR-II; assay: SPR (Biacore T100), receptor ectodomain-Fc on protein G chip, equilibrium binding (KD eq)
[5] = target: Fc-fusion protein receptor ectodomain of BMPR-IA; assay: SPR (Biacore T100), receptor ectodomain-Fc on protein G chip, kinetic 1:1 fit; measurement 1
[6] = target: Fc-fusion protein receptor ectodomain of BMPR-IB; assay: as above
[7] = target: Fc-fusion protein receptor ectodomain of BMPR-IA; assay: SPR (Biacore T100), receptor ectodomain-Fc on protein G chip, kinetic 1:1 fit; measurement 2
[8] = target: Fc-fusion protein receptor ectodomain of BMPR-IB; assay: as above

Binder | fold higher IB affinity over IA compared to WT [1] | fold higher IB affinity over IA, KD(IA): KD(IB) [2] | fold higher IB affinity over IA, KD(IA): KD(IB) [3] | Kd [4] | Kd [5] | Kd [6] | Kd [7] | Kd [8]
B1 | 1 fold | 122 fold | 40 fold | 32 nM | 1 nM | 0.008 nM | 1.1 nM | 0.027 nM
B2 | 1.8 fold | 216 fold |  | 32 nM | 0.54 nM | 0.0025 nM |  | 
B3 | 14.7 fold |  | 587 fold |  |  |  | 27 nM | 0.046 nM
B4 | 19.7 fold | 2400 fold |  | 10 nM | 43.4 nM | 0.01 nM |  | 
B5 | 5.5 fold | 668 fold |  |  | 20.3 nM | 0.03 nM |  | 
B6 | 8.3 fold |  | 333 fold |  |  |  | 13 nM | 0.039 nM
B7 | 1.1 fold | 130 fold |  | 32 nM | 22.5 nM | 0.172 nM |  | 
B8 | 5.5 fold |  | 219 fold |  |  |  | 5.7 nM | 0.026 nM
B9 | 56.2 fold |  | 2650 fold |  |  |  | 98 nM | 0.037 nM
B10 | 14.5 fold |  | 581 fold |  |  |  | 25 nM | 0.043 nM
B11 | 5.9 fold | 717 fold |  | 32 nM | 32.5 nM | 0.045 nM |  | 
